Reference: US12467929

Assays:
[1] = target: recombinant UBE3A protein (Homo sapiens (Human)) (UniProt Q05086); assay: 2-step Simoa; capture GTX; UBE3A 1.95 ng/ml
[2] = target: recombinant UBE3A protein (Homo sapiens (Human)) (UniProt Q05086); assay: 2-step Simoa; capture GTX; UBE3A 0.488 ng/ml
[3] = target: recombinant UBE3A protein (Homo sapiens (Human)) (UniProt Q05086); assay: Simoa; capture GTX; SBG 75 pm; UBE3A 4.00 ng/ml
[4] = target: recombinant UBE3A protein (Homo sapiens (Human)) (UniProt Q05086); assay: Simoa; capture GTX; SBG 100 pm; UBE3A 4.00 ng/ml
[5] = target: recombinant UBE3A protein (Homo sapiens (Human)) (UniProt Q05086); assay: Simoa; capture GTX; SBG 150 pm; UBE3A 4.00 ng/ml
[6] = target: recombinant UBE3A protein (Homo sapiens (Human)) (UniProt Q05086); assay: Simoa; capture GTX; 3E5 0.1 ug/ml; UBE3A 4.00 ng/ml
[7] = target: recombinant UBE3A protein (Homo sapiens (Human)) (UniProt Q05086); assay: Simoa; capture GTX; 3E5 0.4 ug/ml; UBE3A 4.00 ng/ml
[8] = target: recombinant UBE3A protein (Homo sapiens (Human)) (UniProt Q05086); assay: Simoa; capture GTX; 3E5 0.8 ug/ml; UBE3A 0.160 ng/ml
[9] = target: recombinant UBE3A protein (Homo sapiens (Human)) (UniProt Q05086); assay: Simoa head-to-head, Table 11; capture GTX; UBE3A 0.032 ng/ml
[10] = target: recombinant UBE3A protein (Homo sapiens (Human)) (UniProt Q05086); assay: 3-step Simoa, 120 min bead step; capture GTX; UBE3A 100 ng/ml
[11] = target: recombinant UBE3A protein (Homo sapiens (Human)) (UniProt Q05086); assay: 3-step Simoa, 120 min bead step; capture GTX; UBE3A 500 ng/ml
[12] = target: recombinant UBE3A protein (Homo sapiens (Human)) (UniProt Q05086); assay: Simoa head-to-head, Table 10; capture MS 2F6; UBE3A 4.00 ng/ml
[13] = target: recombinant UBE3A protein (Homo sapiens (Human)) (UniProt Q05086); assay: 3-step Simoa, 120 min bead step; capture GTX; UBE3A 0.160 ng/ml
[14] = target: recombinant UBE3A protein (Homo sapiens (Human)) (UniProt Q05086); assay: Simoa; capture GTX + helper beads; 3E5 0.1 ug/ml; UBE3A 4.00 ng/ml
[15] = target: recombinant UBE3A protein (Homo sapiens (Human)) (UniProt Q05086); assay: Simoa; capture GTX + helper beads; 3E5 0.2 ug/ml; UBE3A 20.0 ng/ml
[16] = target: recombinant UBE3A protein (Homo sapiens (Human)) (UniProt Q05086); assay: Simoa; capture GTX + helper beads; 3E5 0.2 ug/ml; UBE3A 4.00 ng/ml
[17] = target: recombinant UBE3A protein (Homo sapiens (Human)) (UniProt Q05086); assay: Simoa; capture GTX, no helper beads; 3E5 0.1 ug/ml; UBE3A 20.0 ng/ml
[18] = target: recombinant UBE3A protein (Homo sapiens (Human)) (UniProt Q05086); assay: Simoa; capture GTX + helper beads; 3E5 0.1 ug/ml; UBE3A 0.00640 ng/ml
[19] = target: recombinant UBE3A protein (Homo sapiens (Human)) (UniProt Q05086); assay: Simoa; capture GTX, no helper beads; 3E5 0.1 ug/ml; UBE3A 0.00128 ng/ml
[20] = target: recombinant UBE3A protein (Homo sapiens (Human)) (UniProt Q05086); assay: Simoa; capture GTX, no helper beads; 3E5 0.4 ug/ml; UBE3A 0.00640 ng/ml

Chain of UniProt Q05086 (Q05086 whole entry): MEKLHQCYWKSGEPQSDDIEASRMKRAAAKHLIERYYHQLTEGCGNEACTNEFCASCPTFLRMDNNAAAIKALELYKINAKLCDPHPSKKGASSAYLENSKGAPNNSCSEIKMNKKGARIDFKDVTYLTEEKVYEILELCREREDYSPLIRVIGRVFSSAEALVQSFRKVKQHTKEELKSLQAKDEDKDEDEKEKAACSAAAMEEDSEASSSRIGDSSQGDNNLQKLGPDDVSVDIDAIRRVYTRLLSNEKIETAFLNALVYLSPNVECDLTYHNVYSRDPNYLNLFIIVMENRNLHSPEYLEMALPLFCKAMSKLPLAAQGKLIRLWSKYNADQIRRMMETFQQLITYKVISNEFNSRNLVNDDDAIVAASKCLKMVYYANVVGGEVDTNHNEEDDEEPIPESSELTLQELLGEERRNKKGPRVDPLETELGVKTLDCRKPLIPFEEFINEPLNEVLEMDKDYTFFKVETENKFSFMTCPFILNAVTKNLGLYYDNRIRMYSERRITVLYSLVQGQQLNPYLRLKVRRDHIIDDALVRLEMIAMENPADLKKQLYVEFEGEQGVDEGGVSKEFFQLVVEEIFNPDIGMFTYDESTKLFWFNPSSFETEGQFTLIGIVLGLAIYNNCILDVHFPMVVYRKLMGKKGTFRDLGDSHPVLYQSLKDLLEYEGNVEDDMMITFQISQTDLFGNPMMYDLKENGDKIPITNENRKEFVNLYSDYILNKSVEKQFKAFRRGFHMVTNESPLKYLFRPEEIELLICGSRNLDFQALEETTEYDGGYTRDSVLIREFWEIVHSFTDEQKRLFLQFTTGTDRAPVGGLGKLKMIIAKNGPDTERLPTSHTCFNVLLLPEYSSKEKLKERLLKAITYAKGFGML

## NB500-240 (Novus) (antibody)
[1]
  AEB1: 0.018
  AEB2: 0.0187
  Ave AEB: 0.0184
  Signal to Background: 5.62
[2]
  AEB1: 0.0073
  AEB2: 0.0069
  Ave AEB: 0.0071
  Signal to Background: 2.16

## anti-UBE3A antibody 3E5 (SAB1404508-100 ug, Millipore-Sigma)
[3]
  AEB1: 0.459
  AEB2: 0.46
  AEB3: 0.458
  Average AEB: 0.459
  Signal to Background: 105
[4]
  AEB1: 0.739
  AEB2: 0.78
  AEB3: 0.707
  Average AEB: 0.742
  Signal to Background: 88.5
[5]
  AEB1: 0.907
  AEB2: 0.938
  AEB3: 0.927
  Average AEB: 0.924
  Signal to Background: 69.7
[6]
  AEB1: 0.848
  AEB2: 0.891
  AEB3: 0.878
  Average AEB: 0.873
  Signal to Background: 45.3
[7]
  AEB1: 2.3
  AEB2: 2.58
  AEB3: 2.4
  Average AEB: 2.43
  Signal to Background: 38.8
[8]
  AEB1: 0.235
  AEB2: 0.263
  AEB3: 0.226
  Average AEB: 0.241
  Signal to Background: 1.97
[9]
  AEB1: 0.0127
  AEB2: 0.0142
  Ave AEB: 0.0135
  Signal to Background: 1.65
[10]
  AEB1: 7.86
  AEB2: 8.12
  Ave AEB: 7.99
  Signal to Background: 4690
[11]
  AEB1: 16.8
  AEB2: 16.8
  Ave AEB: 16.8
  Signal to Background: 9850
[12]
  AEB1: 0.132
  AEB2: 0.127
  Ave AEB: 0.13
  Signal to Background: 9.58
[13]
  AEB1: 0.0398
  AEB2: 0.0389
  Ave AEB: 0.0393
  Signal to Background: 23.1
[14]
  AEB1: 0.639
  AEB2: 0.606
  Average AEB: 0.623
  Signal to Background: 109
[15]
  AEB1: 5.63
  AEB2: 5.39
  Average AEB: 5.51
  Signal to Background: 570
[16]
  AEB1: 0.892
  AEB2: 0.846
  Average AEB: 0.869
  Signal to Background: 89.8
[17]
  AEB1: 3.57
  AEB2: 3.21
  Average AEB: 3.39
  Signal to Background: 592
[18]
  AEB1: 0.0065
  AEB2: 0.0045
  Average AEB: 0.0055
  Signal to Background: 0.962
[19]
  AEB1: 0.005
  AEB2: 0.0075
  Average AEB: 0.0062
  Signal to Background: 1.09
[20]
  AEB1: 0.0228
  AEB2: 0.0232
  Average AEB: 0.023
  Signal to Background: 1.18
